The values below come from the nanobody polyreactivity screen of Harvey et al. (2022).

A short description of this series: yeast display, Sf9 membrane polyspecificity reagent, FACS + sequencing; frameworks hold sequencing errors. The method in brief: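 Sorting gates, low and high (top ~1%), were placed on anti-HA fluorescence to track expression and on streptavidin fluorescence to track reagent binding. A clone's polyreactivity label is taken from the gate it came out of. The reagent was 10% biotinylated, detergent-solubilized Sf9 membrane, applied for 1 hour at 4 °C to galactose-induced yeast display cells.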
For the sequence “QVQLVESGGGLVQAGGSLPLSCAASGSIFKPYAMGWYRQAPGKERELVAVISWRGGSTYYADSVKGRFTISRDNAKNTVYLQMNSLKPEDTAVYYCAARRYRYFDGTVPLDYWGQGTQVTVSS”, the “polyreactivity (PSR sort gate)” value is reported as “high polyreactivity”.
“QVQLVESGGGLVQAGGSLPLSCAASGSTFGYNAMGWYRQAPGKERELVAAITWTGASTYYADSVKGRFTISRDNAKNTVYLQMNSLKPEDTAVYYCNARFGKRGYSPPYDYWGQGTQVTVSS”: the “polyreactivity (PSR sort gate)” value is given as “low polyreactivity”.
On to “QVQLVESGGGLVQAGGSLPLSCAASGSTFSYYAMGWYRQAPGKERELVAAITSGGSTYYADSVKGRFTISRDNAKNTVYLQMNSLKPEDTAVYYCNAEPYTSSGGYRAYDFDYWGQGTQVTVSS”, for which the “polyreactivity (PSR sort gate)” value was “low polyreactivity”.
As to “QVQLVESGGGLVQAGGSLPLSCASYGSIIVGNVMGWYRQAPGKESELVAAMTSSGTSTFYADSVKGRFTNSRDIAKNTVYLQMNSLKPEVTAVYYCAVDLYWSYFNGSLGYRYYFWGQGTQLTVSS”, the “polyreactivity (PSR sort gate)” value was “high polyreactivity”.
The same measure for “QVQLVESGGGLVQAGGSLPLSGAPSGSTFGYNTMGWSRQAPGKESELVAAITSGGRTYYADSVKGRFTISRDNAKNTVYLQRNSLKPEDTAVYYCAAYYWWGYPENDYWVQGTQVTVSS”: “high polyreactivity”; for “QVQLVESGGGLVQAGGSLPLSSAASGLIFSWYAMGWYRQAPAKDSELVAAIDQSGDSTYYADSVKGRFTISRDNAKNTVYLQMNSLKPEDTAVYYCAAQSYDYWYDYDYWGQGTQVTVSS”: “high polyreactivity”.
Take “QVQLVESGGGLVQAGGSLPLTCAASGLTFYDYPMGWYRKATVKERELVAAIRRSGTRTYYADSVKGRFTISRDYAKNTVYLQMNSLKPEDTAVYYCNTVRRLKRYSSYGHDYWGQGTQVTVSS”: the “polyreactivity (PSR sort gate)” value is “high polyreactivity”.
In the case of “QVQLVESGGGLVQAGGSLRFSCAAPGTIFPRYAMGWYRQAPGKERELVAAISRSGGSTYYADSVKGRFTISRDNAKNTVYLQMNSLKPEDTAVYYCATDKVSHRRYDYWGQGTQVTVSS”, the “polyreactivity (PSR sort gate)” value is on record as “high polyreactivity”.
The same measure for “QVQLVESGGGLVQAGGSLRFSCAASGGIFWHYTMGWYRQAHGKERELVAAITRRGGSTYYADSVKGRFTISRDNAKNTVYLQINSLKPEDTAVYYCAADFLPQSYNWYDYWGQGTQVTVAS”: “low polyreactivity”.
For the sequence “QVQLVESGGGLVQAGGSLRFSCAASGGTFGYNAMGWYRQAPGKDRELVARISWRGASTYYADSVKGRFTLSRDNAKNTVYLQMNSLKPEDTAVYYCAAYSFNYQPAYAYRGEDYWGQGTQVTVSS”, the “polyreactivity (PSR sort gate)” value is given as “low polyreactivity”.
The same measure for “QVQLVESGGGLVQAGGSLRFSCAASGITFTEYAMGWYTQAPGTERELVAAITGSGTSTYYADSVKGRFTISRDNAKNTVYLHMNSLKPEDTAVYYCAARTRGTAYNYWGQGTQVTVSS”: “high polyreactivity”; for “QVQLVESGGGLVQAGGSLRFSCAASGITFVDYAMGWYRQAPGKEREFVAGISESGGSTYYADSVKGRFTISRDNAKNTVYLQMNSLKPEDTAVYYCAADPYVDSYDSWGQGTQVTVSS”: “low polyreactivity”.
As for “QVQLVESGGGLVQAGGSLRFSCAASGLIFGSYTMGWSRQAPGKERELVAGISRGGGITYYADSVKGRFTISRDNAKNTVYLQMNSLKPEDTAVYYCAAGYFSYSPYGSYKFGYWGQGTQVTVSS”, the “polyreactivity (PSR sort gate)” value is reported as “high polyreactivity”.
With “QVQLVESGGGLVQAGGSLRFSCAASGRIFRRYAMGWYRQAPGKERELVAAITQSGDSTYYADSVKGRFTISRDNAKNTVYLQMNSLKPEDTAVYYCAAAGGPYRYNYWGQGTQVTVSS”, the “polyreactivity (PSR sort gate)” value was “high polyreactivity”.
The same measure for “QVQLVESGGGLVQAGGSLRFSCAASGRIFSGNGMGWYRQAPGKEREFVAAIRFSSGSTYYADSVKGRFTISRDNAKNTVYLQMNSLKPEDTAVYYCARPSIPRRYDYWGQGTQVTVSS”: “high polyreactivity”.
Take “QVQLVESGGGLVQAGGSLRFSCAASGRIFTPYAMGWYRQAPGKERELVAVIRDGSTYYADSVKGRFTISRDNAKNTVYLQMNSLKPEDTAVYYCRYDIWVWWSGAYDYWGQGTQVTVSS”: the “polyreactivity (PSR sort gate)” value is on record as “low polyreactivity”.
Turning to “QVQLVESGGGLVQAGGSLRFSCAASGRIFYLNAMGWYRQAPGKERELVAAISRSGGRTYYADSEKGRFTISRDNAKHTVYLQMNSLKPEDTAVYYCAADTAGATPERNYWGQGPQVTVSS”, the “polyreactivity (PSR sort gate)” value was “high polyreactivity”.
To “QVQLVESGGGLVQAGGSLRFSCAASGRISPSYAMGWNRKAPGKERELVAAIYRGGSTSYADSVKGRFTISRDNAKNNVYLQMNSLKPEDTAVYYCATRGPRYRYYYWGQGTQVTVSS” belongs “high polyreactivity”; to “QVQLVESGGGLVQAGGSLRFSCAASGRTFYRYAMGWYRQAPGKERVLVAAISGSGGSTYYADSVKGRFTISRDNAKNTVYLQMNSLKPEDTAVYYCAADGPSHHGDDDYWGQGTQVTVSS”, “low polyreactivity”.
On to “QVQLVESGGGLVQAGGSLRFSCAASGSICGGYAMGWYRQAPGKERELVASITKSGDSTYADSVKGRFTISRDNAKNTVYLQMNSLKPEDTAVYYSAADSTFGNFDYWGQGTQVTVSS”, for which the “polyreactivity (PSR sort gate)” value is recorded as “low polyreactivity”.
To “QVQLVESGGGLVQAGGSLRFSCAASGSTFQYYAMGWYRQAPGKEREFVAAIRSSGGTTYYADSVKGRFTLSRDNAKNTVYLQMNSLKPEDTAVYYCAATTKYNGRRSYFKFDYWGQGTQVTVSS” belongs “high polyreactivity”; to “QVQLVESGGGLVQAGGSLRFSCAASGSTFTAYVMGWYRQAPGKERELVAAISRSGGRTYYADSVKGRFTISRDNAKKTVYLQMNSLKPEDTAVYYCAARSGPLAYDYWGQGTQVTVSS”, “high polyreactivity”.
With “QVQLVESGGGLVQAGGSLRFSCAASGSTFTVYAMGWYRQAPGQERELVAAITNGGRTYYADSVKGRFTISRDNAKNTVYLQMNSLKPEDTAVYYCAADVYYDDYLYDYWGQGTQVTVSS”, the “polyreactivity (PSR sort gate)” value is “high polyreactivity”.
Regarding “QVQLVESGGGLVQAGGSLRFSCAASGSTISSNVMGWYRQAPGKERELVAAITKTGGRTYYADSVKGRFTISRDNAKNTVYLQMNSLKPEDTAFYYCAAKSKPRGTSSDYYYWGQGTQVTVSS”, the “polyreactivity (PSR sort gate)” value is listed as “high polyreactivity”.
In the case of “QVQLVESGGGLVQAGGSLRFSCAASGTFDYYDMGWYRQAPGKEWELVAGITSGGSTDYADSEKGRFTISRDNAKNTVYLQMNSLKPEDTAVYYCAADPFRIHTYDYWGQGTQVTVSS”, the “polyreactivity (PSR sort gate)” value was “low polyreactivity”.
For the sequence “QVQLVESGGGLVQAGGSLRFSCAASGTFVPYAMGWYRQAPGKEMELVARITWRGGSTYYADSVKGRFTISRDNAKNTVYLQMNSLKPEDTAVYYCATVSDNRYYYWGQGTQVTVSS”, the “polyreactivity (PSR sort gate)” value is on record as “low polyreactivity”.
“QVQLVESGGGLVQAGGSLRFSCADSGSIFRYAMGWYRQAPGKERELVAGMSASGGRTYYADSVKGRFTISRDNAKNTVYLQMNSLKPEDTAVYYCNAVTREYQRPPVPRSYLYDYWGQGTQVTVSS”: the “polyreactivity (PSR sort gate)” value was “high polyreactivity”.
On to “QVQLVESGGGLVQAGGSLRFSCAPSGITFRFYAMGCYRQAPGKESEFVAAISSRGGRTYYADSVKGRFTISRDYAKNTVYLQMNSLKPEDTAVYYCAAGKIGRYHYDYWGQGTQVTVSS”, for which the “polyreactivity (PSR sort gate)” value is “high polyreactivity”.
Turning to “QVQLVESGGGLVQAGGSLRFSCPASGLIFYYYVMGWYRQAPGKEREFVAAIRYRSSSTYYADSVKGRFTISRVNAKNTVYLQMNSVKPEDTAVYYCGADIYTYNLFYHGRWLDYNYWGQGTQVTVSS”, the “polyreactivity (PSR sort gate)” value is “high polyreactivity”.
Take “QVQLVESGGGLVQAGGSLRIICAASGRIFRENAMGWYRQAPGKAREWVAAISSGGSTYYADSVKGRFTISRDNAKNTDYLQMNSLKPEDPAVYYCAADLSWSRVVFGDYDYWGQGTHVTVSS”: the “polyreactivity (PSR sort gate)” value is “low polyreactivity”.
Regarding “QVQLVESGGGLVQAGGSLRIICAASGRIFYSNGMGWYRQAPGKERELVAGITRGGSTNYADSVKGRFTISRDNAKNTVYLQMISLKPEDTAVFYCAANQLHYRPSRFVYYGYRLYDYWGHGTQVTVSS”, the “polyreactivity (PSR sort gate)” value is given as “low polyreactivity”.
In the case of “QVQLVESGGGLVQAGGSLRIICAASGTTFVYNDMGWYRQAPGKEGELVAGITTSGGSTYYADSVKGRFTISRDNAKNTVYLQRNSLKPEDTAVYYWAAPAFSAWLEMDYWGQGTQVTVSS”, the “polyreactivity (PSR sort gate)” value is given as “low polyreactivity”.
To “QVQLVESGGGLVQAGGSLRISCAASGFIFFYAMGWYRQAPGKERELVASIDSGVSTDYADSVKGRLTISRDNAKNTVYLQMNSLKPEDNAVYYCAADPWSSLNYDYWGQGTQVTVSS” belongs “low polyreactivity”; to “QVQLVESGGGLVQAGGSLRISCAASGFIFGPNAMGWYRQAPGKERELVAAISYSGGRTYYADSVKGRFTISRDNAKNTVYLQMNILKPEDTAVYYCAQPGRYWGQGTQVTVSS”, “high polyreactivity”; to “QVQLVESGGGLVQAGGSLRISCAASGFIFIAYAMGWYRQAPGKERELVAAISKSGGNTYYADSVKGRFTISRDNAKNTVYLQMNSLKPEDTAVYYCATRPCYWRYEYWGQGTQVTVSA”, “high polyreactivity”.
The same measure for “QVQLVESGGGLVQAGGSLRISCAASGFIFRPNAMGWYRQAPGKERELVAAITRDGDRTYYADSVKGRFTISRDNAKNTVYLQMNSLKPEDTAVYYCAADVIQWWTRYYTWEYDYWGQGTQVTVSS”: “low polyreactivity”; for “QVQLVESGGGLVQAGGSLRISCAASGFIFRYYAMGWYRQAPGKERELVARITNGGSTKYSDSVKGRFTISRDNAKTTVYLQMNSLKPEDTAVYYCNTDGLVRNGPFFSWGQGTQVTVSS”: “low polyreactivity”.
On to “QVQLVESGGGLVQAGGSLRISCAASGFIFTSKAMGWHRQAPGKERELVAAITKSGGSTYYADSVKGRFTISRDNAKNTVYLQMNSLKPEDTAVYYCAAYPTSRYKYEYWGQGTQVTVSS”, for which the “polyreactivity (PSR sort gate)” value is given as “high polyreactivity”.
With “QVQLVESGGGLVQAGGSLRISCAASGFIFYSYPMGWYRQAPGKERELVAAISTSGGSTYYADSVKGRFTISRDNAKNTVYLQMNSLKPEDTAVYYCAVGRKFGRYRVPFVVPYEYWGHGTQVTVSS”, the “polyreactivity (PSR sort gate)” value is listed as “high polyreactivity”.
As for “QVQLVESGGGLVQAGGSLRISCAASGFILGYKDMGWYRQAPGKERELVAAISSSGGSTYYADSVKGRFTISRDNSKNTVYLQMNILKPEDTAVYYCGLPYQTSYGEYDYWGQGTQVTVSS”, the “polyreactivity (PSR sort gate)” value was “low polyreactivity”.
To “QVQLVESGGGLVQAGGSLRISCAASGFTFHTYAMGWYRQAPGKERELVAAIDSSGGITYYADSVKGRFTISRDNAKNTVYLQMTSLKPEDTAVYYCAAVFLLFGFEWSYDYWGQGTQVTVSS” belongs “low polyreactivity”.
